The values that follow come from patent US20190352405A1 (I MAB BIOPHARMA US, published 2019).

Test [1] deals with T1, recombinant PD-L1 protein (human PD-L1-his taq) (human, UniProt Q9NZQ7 19-238).
T1 construct: also called human PD-L1-his taq protein; his-PDL1; not shown: his tag
In words: SPR (Biacore T200), antibody captured by anti-human Fc on CM5 chip, PD-L1-his as analyte. On the procedure:
A series of dilutions of human PD-L1-his taq protein were injected over captured antibody for 3 mins at a flow rate of […]. The antigen was allowed to dissociate for 900s. All the experiments were carried out on a Biacore T200. Data analysis was carried out using Biacore T200 evaluation software.

Test [2] has as its target T2, PD-L1 expressed on Raji cells (PDL1-Raji cells) (UniProt Q9NZQ7 19-290, limits assumed).
T2 construct: whole, on cells; also called mammalian expressed PD-L1
Description: FACS on PDL1-Raji cells, Alexa 488 anti-human IgG secondary antibody, MFI; the EC50 table has no unit, nM is taken from the x axis (Log [Conc.] / nM). The protocol: After washing by FACS buffer (PBS with 2% FBS), the Alexa 488-anti-human IgG antibody was added to each well and incubated at RT for 1 hour. The MFI of Alexa 488 were evaluated by FACSAriaIII.

The target in test [3] is T3, IL7 receptor (IL7R) on human primary CD4+ T cells (human, UniProt P16871 21-459).
T3 construct: whole, on cells; Native receptor on cells; also called surface IL7R; CD127 (IL7Ra)
T3 sequence (looked up): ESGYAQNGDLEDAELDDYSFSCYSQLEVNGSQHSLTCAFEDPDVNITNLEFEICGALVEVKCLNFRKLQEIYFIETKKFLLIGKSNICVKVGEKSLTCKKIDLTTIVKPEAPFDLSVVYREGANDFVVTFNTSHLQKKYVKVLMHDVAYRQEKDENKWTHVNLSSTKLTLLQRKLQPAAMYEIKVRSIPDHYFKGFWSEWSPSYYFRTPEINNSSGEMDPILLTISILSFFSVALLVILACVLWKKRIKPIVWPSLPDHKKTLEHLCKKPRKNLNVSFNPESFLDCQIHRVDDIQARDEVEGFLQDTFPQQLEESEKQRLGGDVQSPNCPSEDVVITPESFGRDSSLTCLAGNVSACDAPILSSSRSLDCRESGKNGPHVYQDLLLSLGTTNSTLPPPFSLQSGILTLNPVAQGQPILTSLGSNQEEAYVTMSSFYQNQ
Description: FACS on human primary CD4+ T cells, 4 °C for 30 min, PE anti-human Fc secondary antibody, MFI; fit value printed for a nearly flat control curve; the EC50 column has no unit, nM is taken from the x axis (Log [Conc.] / nM). On the procedure: PE-conjugated anti-human Fc secondary antibody were used to detect the fusion molecules that bound to the IL7R of CD4⁺ T cells by FACS. […] For ligation-mediated receptor internalization assay, human primary CD4⁺ T cells were cocultured with fusion molecules at 37° C. for 15 mins. PE-cy7-conjugated-anti-CD127 (IL7Ra) antibody was used to detect the surface IL7R by FACS.

T1 sequence (Q9NZQ7 19-238 limits assumed): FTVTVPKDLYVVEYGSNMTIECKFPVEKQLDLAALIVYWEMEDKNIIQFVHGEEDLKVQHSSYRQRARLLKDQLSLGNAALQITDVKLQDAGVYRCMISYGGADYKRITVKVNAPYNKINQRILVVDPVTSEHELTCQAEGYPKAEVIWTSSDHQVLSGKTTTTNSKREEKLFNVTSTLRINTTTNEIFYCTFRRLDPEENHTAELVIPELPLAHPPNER
T2 sequence (Q9NZQ7 19-290 limits assumed): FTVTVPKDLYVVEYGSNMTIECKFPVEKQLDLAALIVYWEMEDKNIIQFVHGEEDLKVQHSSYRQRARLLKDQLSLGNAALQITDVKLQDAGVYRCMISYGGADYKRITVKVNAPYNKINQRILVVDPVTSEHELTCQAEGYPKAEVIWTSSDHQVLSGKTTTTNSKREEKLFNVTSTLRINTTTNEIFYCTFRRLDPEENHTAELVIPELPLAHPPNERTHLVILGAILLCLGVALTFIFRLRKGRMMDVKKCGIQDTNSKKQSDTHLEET

B1: Anti-PDL1 mAb (antibody, V domains shown)
VH: EVQLVESGGGLVQPGGSLRLSCAASGFTFSSYDMSWVRQAPGKSLEWVATISDAGGYIYYSDSVKGRFTISRDNAKNSLYLQMNSLRDEDTAVYICAREFGKRYALDYWGQGTTVTVSS
VL: DIQMTQSPSSLSASVGDRVTITCKASQDVTPAVAWYQQKPGKAPKLLIYSTSSRYTGVPSRFSGSGSGTDFTFTISSLQPEDIATYYCQQHYTTPLTFGQGTKLEIK
notes: also called anti-PDL1 monoclonal antibody; anti-PDL1 antibody
For the molecule B1, in test [1], the Kd is 2.09 nM, the koff was 0.000178 s⁻¹ and the kon came out at 85000 M⁻¹ s⁻¹. The same molecule showed an EC50 in test [2] of 7.99 nM. For the same molecule, in test [3], a half-maximal effect (EC50) was put at 35 nM.

In general, Kd refers to the constant that tells how readily two partners part at equilibrium. By koff is commonly meant a measure of how fast the partners let go of each other. As a reminder, the kon is the second-order rate constant of association. The term EC50 denotes the concentration giving half of the maximal effect. Higher therefore signals weaker potency.
